# B1: Stu2-HA (wild-type Stu2, 3xHA tagged) [S. cerevisiae] / γ-tubulin (Tub4) [S. cerevisiae (endogenous in yeast extract)] (parent)
# chain 1: MSGEEEVDYTTLPLEERLTYKLWKARLEAYKELNQLFRNSVGDISRDDNIQIYWRDPTLFAQYITDSNVVAQEQAIVALNSLIDAFASSSLKNAHNITLISTWTPLLVEKGLTSSRATTKTQSMSCILSLCGLDTSITQSVELVIPFFEKKLPKLIAAAANCVYELMAAFGLTNVNVQTFLPELLKHVPQLAGHGDRNVRSQTMNLIVEIYKVTGNNSDLLEEILFKKLKPIQVKDLHKLFAKVGDEPSSSKMLFEWEKRELEKKRSQEEEARKRKSILSNDEGEYQIDKDGDTLMGMETDMPPSKQQSGVQIDTFSMLPEETILDKLPKDFQERITSSKWKDRVEALEEFWDSVLSQTKKLKSTSQNYSNLLGIYGHIIQKDANIQAVALAAQSVELICDKLKTPGFSKDYVSLVFTPLLDRTKEKKPSVIEAIRKALLTICKYYDPLASSGRNEDMLKDILEHMKHKTPQIRMECTQLFNASMKEEKDGYSTLQRYLKDEVVPIVIQIVNDTQPAIRTIGFESFAILIKIFGMNTFVKTLEHLDNLKRKKIEETVKTLPNFSIASGSTHSTIETNKQTGPMENKFLLKKSSVLPSKRVASSPLRNDNKSKVNPIGSVASASKPSMVAANNKSRVLLTSKSLATPKNVVANSTDKNEKLIEEYKYRLQKLQNDEMIWTKERQSLLEKMNNTENYKIEMIKENEMLREQLKEAQSKLNEKNIQLRSKEIDVNKLSDRVLSLENELRNMEIELDRNKKRNDTNLQSMGTISSYSIPSSTVSSNYGVKSLSSALPFKEEEDVRRKEDVNYERRSSESIGDLPHRVNSLNIRPYRKNGTGVSSVSDDLDIDFNDSFASEESYKRAAAVTSTLKARIEKMKAKSRREGTTRT
# chain 2: MGGEIITLQAGQCGNHVGKFLWSQLAKEHAIGTDGLSQLPDSSTERDDDTKPFFRENSRNKFTPRAIMMDSEPSVIADVENTFRGFFDPRNTWVASDGASAGNSWANGYDIGTRNQDDILNKIDKEIDSTDNFEGFQLLHSVAGGTGSGLGSNLLEALCDRYPKKILTTYSVFPARSSEVVVQSYNTILALRRLIEDSDATVVFDNASLLNISGKVFRNPNIDLQHTNQLISTIISSVTNSIRFPSYMYSSMSSIYSTLIPSPELHFLSPSFTPFTSDYIHDDIAHKGHSSYDVMLDLLDPSNSLVSTAMNNPTYFNVYNTIIGNVEPRQISRAMTKLQQRIKFPSWSSSAMHVNIGRRSPYLPLQPNENEVSGMMLSNMSTVVNVFENACNTFDKVFAKGAFLNNYNVGDLFQSMQNVQDEFAESREVVQSLMEDYVAAEQDSYLDDVLVDDENMVGELEEDLDADGDHKLV
# Variants of: B1
# Experiment: co-immunoprecipitation, western blot densitometry
# Settings: with γ-tubulin (Tub4) [S. cerevisiae (endogenous in yeast extract)], PBS buffer, three biological replicates, read off a plot; for screen value: parent: 0; for ratio to parent: parent: 1
screen value,ratio to parent,Variant
-0.6,0.9,chain 1 K870Q
0.1,1.5,chain 1 K870R
0.75,2.2,chain 1 K469R

# More lines, now with the values behind:
Variant,screen value,ratio to parent
chain 1 K252Q K469Q K870Q,1.8,5.5
chain 1 K252R,-0.05,1.2
chain 1 K252Q,1.8,7
chain 1 K252R K469R,-0.5,0.7
chain 1 K252R K469R K870R,-3,–
chain 1 K252Q K469Q,1,2.5
chain 1 K469Q,1.5,4
